Data as given in US20030008857A1, “Photodynamic therapy (PDT) in combination with factors that bind cell surface apoptosis-inducing receptors” (priority 1999, published 2003).
“Also recorded” adds a separate entry of the source.

What was measured:
Assay type in all cases: cell-based, human
[1] = test system: caspase-3, -6 and -8; assay: Caspase cleavage activity of cell extracts, statements covering DEVD, VEID and IETD peptides together
Description: (§1) The human Jurkat T cell line containing a neomycin resistance gene was obtained from Dr. Charles Rudin (University of Chicago). Cells were maintained in RPMI 1640 medium containing 10% heat-inactivated fetal calf serum (FCS) with penicillin (100 U/mL), streptomycin (100 μg/mL), 20 mM HEPES, 2 mM L-glutamine and G418 (1 μg/ml) purchased from Gibco BRL (Burlington, Ontario) in a CO2 incubator at 37° C. To elicit apoptosis with PDT, Jurkat cells were incubated with different amounts of liposomally formulated benzoporphyrin derivative monoacid ring A (BPD-MA, verteporfin, QLT PhotoTherapeutics, Inc., Vancouver, Canada) for one hour at 37° C. under light-protected conditions. The culture medium used for experiments was identical to that used for the passage of the cells except that FCS was used at a concentration of 5%. Experiments were conducted either in 6-well culture plates at 5×10^6 cells in a volume of 4 ml per well or in 96-well microtiter plates at 1×10^5 cells per well at 0.2 ml per well. Cells were irradiated with light of a wavelength of 690 nm delivered at 65-73 mW/sec from light emitting diodes (LED) to achieve a total light dose of 5 J/cm^2. Cells were returned to the incubator until required for analysis.
(§2) FasL and TRAIL as used were recombinant preparations. FasL was obtained from Upstate Biotechnology (Lake Placid NY) and corresponded to amino acids 103-281 of the soluble domain of human FasL. TRAIL was obtained from BIOMOL Research Laboratories (Plymouth Meeting, Pa.) and corresponded to residues 114-281 of the soluble domain of human TRAIL. FasL and TRAIL were usually added immediately following the treatment of cells with PDT, although in one series of experiments these factors were added at 1, 2 or 3 hours post-irradiation.
Whole cell lysates were prepared by washing 1×10^7 cells per sample twice with ice-cold PBS. Cells were disrupted with 1 mL of lysis buffer [1% Nonidet P-40 detergent (NP-40), 20 mM Tris-HCl, pH 8.0, 137 mM NaCl, 10% glycerol, 1 mM phenylmethylsulfonyl fluoride (PMSF) aprotinln (0.15 U/mL) and 1 mM sodium orthovanadate] for 20 minutes on ice. Lysates were centrifuged for 10 minutes at 15,800×g at 4° C.
These sequences are denoted by letter codes for each amino acid. To evaluate relative DEVDase (caspases 3 and 7), VEIDase (caspase 6) and IETDase (caspase 8) cleavage activity, Jurkat cell lysates were incubated with caspase-specific fluorescent substrates as described by Granville et al. (“Photodynamic therapy induces caspase-3 activation in HL-60 cells”, Cell Death Differ., 4, 623-629 (1997)). Briefly, lysates were incubated with reaction buffer (20 mM Tris pH 7.5, 137 mM NaCl, 1% NP-40, 10% glycerol) containing 100 μM of the caspase substrates Ac-DEVD-AMC (Calbiochem, Cambridge, Mass.), Ac-VEID-AMC (Calbiochem, Cambridge, Mass.), Ac-lETD-AMC (BIOMOL, Plymouth Meeting Pa.), and Ac-LEHD-AMC (Calbiochem, Cambridge, Mass.). The letter codes for the amino acid residues present within the inhibitor peptides are as following: D=aspartic acid; E=glutamic acid; H=histidine; I=isoleucine; T=threonine; V=valine. The reaction mixture was incubated at 37° C. for 1 (DEVD.AMC) or 24 (VEID.AMC and IETH.AMC) h and fluorescence was measured using an excitation at 380 nm and an emission wavelength of 460 nm with a CytoFluor™ 2350 fluorescent measuring system (Perseptive Biosystems, Burlington, Ont).

[2] = test system: DEVDase (caspases 3 and 7); assay: Protease assay of cell extracts with Ac-DEVD-AMC; settings: FasL 7.5 ng/ml, 3 hours, Jurkat whole cell extracts
Description: as §1, with “Cells were irradiated with light of a wavelength of 690 nm delivered at 65-73 mW/sec from light emitting diodes (LED) to achieve a total light dose of 5 J/cm^2. Cells were returned to the incubator until required for analysis.” left out
(§3) These sequences are denoted by letter codes for each amino acid. […] The reaction mixture was incubated at 37° C. for 1 (DEVD.AMC) or 24 (VEID.AMC and IETH.AMC) h and fluorescence was measured using an excitation at 380 nm and an emission wavelength of 460 nm with a CytoFluor™ 2350 fluorescent measuring system (Perseptive Biosystems, Burlington, Ont).

[3] = test system: VEIDase (caspase 6); assay: Protease assay of cell extracts with Ac-VEID-AMC; settings: FasL 7.5 ng/ml, 3 hours, Jurkat whole cell extracts
Description: as §1, with “Cells were irradiated with light of a wavelength of 690 nm delivered at 65-73 mW/sec from light emitting diodes (LED) to achieve a total light dose of 5 J/cm^2. Cells were returned to the incubator until required for analysis.” left out
as §3

[4] = test system: Jurkat T cells; assay: DNA fragmentation (sub-diploid DNA) by PI staining and flow cytometry
Description: as §1, §2
The proportion of cells containing sub-diploid levels of DNA 24 hours following treatment was determined using a propidium iodide (“PI”) fluorescence analysis procedure as described by Telford et al. (“Rapid Quantitation of Apoptosis in Pure and Heterogeneous Cell Populations Using Flow Cytometry” J. Immunol Methods 172:1-6 (1994)) or by Darzynkieicz et al. (“Features of Apoptotic Cells Measured by Flow Cytometry”, Cytometry, 13:795-808 (1992)).
Twenty four hours following PDT, 5×10^5 cells were washed twice with ice-cold PBS and then permeablized and fixed in 80% ethanol at 4° C. for one hour. The cells were again washed in ice-cold PBS and stained with PI (50 μg/mL) in PBS with simultaneous deoxyribose nuclease-free ribonuclease A (5 U/mL) treatment. These samples were analyzed by flow cytometry. The percentage of apoptotic cells was calculated using single color analysis for PI fluorescence with a Coulter XL flow cytometer (Coulter Electronics, Inc., Hialeah, Fla.). […] The degree of separation between the apoptotic population and the G0/G1 peak is readily apparent and the percentage of apoptotic cells is determined from the subsequent histogram.

[5] = test system: IETDase (caspase 8); assay: Protease assay of cell extracts with Ac-IETD-AMC; settings: FasL 7.5 ng/ml, 3 hours, Jurkat whole cell extracts
Description: as §1, with “Cells were irradiated with light of a wavelength of 690 nm delivered at 65-73 mW/sec from light emitting diodes (LED) to achieve a total light dose of 5 J/cm^2. Cells were returned to the incubator until required for analysis.” left out
as §3

[6] = test system: caspase-3, -6, -8 and -9 and PARP; assay: Western immunoblot of caspase processing and PARP cleavage in Jurkat cells; settings: 3 hours
Description: as §1
(§4) FasL and TRAIL as used were recombinant preparations. […]

[7] = test system: cytochrome c; assay: Cytochrome c in cytosolic extracts of Jurkat cells (immunoblot); settings: 3 hours
Description: as §1, §4

[8] = FasL 7.5 ng/ml or TRAIL 20 ng/ml

B1: FasL: recombinant, amino acids 103-281 of the soluble domain of human FasL (Upstate Biotechnology) (protein, UniProt P48023 103-281, looked up, fragment)
chain: QLFHLQKELAELRESTSQMHTASSLEKQIGHPSPPPEKKELRKVAHLTGKSNSRSMPLEWEDTYGIVLLSGVKYKKGGLVINETGLYFVYSKVYFRGQSCNNLPLSHKVYMRNSKYPQDLVMMEGKMMSYCTTGQMWARSSYLGAVFNLTSADHLYVNVSELSLVNFEESQTFFGLYKL
[1]; FIG. 7: factor combined with PDT (verteporfin 5 ng/ml, 5 J/cm^2), 3 hours
  caspase activity compared with the treatments given independently: higher caspase activity
[1]; FIG. 7: verteporfin 5 ng/ml with light, FasL 7.5 ng/ml or TRAIL 20 ng/ml alone, 3 hours
  protease activity on DEVD, VEID and IETD peptides, single treatment: modestly increased
[1]; FasL 7.5 ng/ml plus PDT at verteporfin 5 ng/ml
  nature of the combined effect on caspase cleavage activity: greater than additive effect
[1]; FasL 7.5 ng/ml plus PDT at verteporfin 5 ng/ml, 3 hours
  caspase cleavage activity levels relative to PDT or FasL applied independently: 2-5 fold
[1]; factor plus verteporfin in the absence of light irradiation
  protease activity compared with FasL or TRAIL alone: no different
[2]
  increase in DEVDase-like cleavage activity versus control cells: approximately two-fold
[3]
  increase in VEIDase-like cleavage activity versus control cells: approximately two-fold
[4]; FasL 7.5 ng/ml added after PDT with verteporfin 2 ng/ml, 5 J/cm^2, 24 hours
  increase in proportion of cells with sub-diploid DNA versus light-treated control cells: twelve-fold
[4]; FasL 7.5 ng/ml by itself, 24 hours (FIG. 2)
  increase in the number of cells displaying DNA fragmentation: seven-fold
[4]; FasL 200 ng/ml, within 24 hours
  cells with induced DNA fragmentation: approximately 60%
[4]; TRAIL 20 ng/ml or FasL 7.5 ng/ml added after PDT with verteporfin 0.5 and 1 ng/ml
  proportion of cells with sub-diploid DNA compared with PDT alone: a greater proportion of cells contained a sub-diploid level of DNA
[4]; added at 5 minutes, 1, 2 or 3 hours, FasL 7.5 ng/ml, TRAIL 20 ng/ml, individually or in combination
  DNA fragmentation induced by the factor without PDT across addition times: a comparable level of DNA fragmentation
[4]; factor added at 3 hours post-PDT (verteporfin 2 ng/ml)
  change of the combined effect with PDT on DNA fragmentation: a modest decline
[4]; factor added up to 3 hours after PDT (verteporfin 2 ng/ml), FasL 7.5 ng/ml, TRAIL 20 ng/ml
  capacity to accentuate PDT-mediated apoptosis (DNA fragmentation): still demonstrable
[5]
  increase in IETDase-like activity versus control cells: one-and-half fold
[6]; FasL 7.5 ng/ml or TRAIL 20 ng/ml combined with verteporfin PDT
  caspase processing and PARP degradation compared with PDT or the factor alone: more extensive caspase processing and PARP degradation; also recorded: a higher degree of processing
[6]; [8]
  processing of caspases and PARP by the factor alone: little or no processing; also recorded: little detectable processing
[7]; [8]
  cytochrome c in cytosolic extracts, factor alone: background levels of cytochrome c
[7]; PDT in combination with TRAIL 20 ng/ml or FasL 7.5 ng/ml
  cytochrome c in cytosolic extracts, factor with PDT: readily detectable amounts of cytochrome c
